The source of these data is US5686595, “Bcl-2-associated proteins” (La Jolla Cancer Research Foundation, dated 1997).

The target in experiment [1] is human Bcl-2 protein produced in 32D-BCL-2 cells (human) (UniProt P10415). Briefly: immunoprecipitation with anti-Bcl-2 monoclonal antibody 4D7 or control mouse IgG1 from 32D-BCL-2 lysate, in vitro immune complex kinase assay.
Experiment [2] concerns the target GST protein without BAP-1 sequences (Schistosoma japonicum (Blood fluke), UniProt P08515 = GST). Briefly: GST pull-down of 35S-labeled in vitro translated protein, SDS-PAGE and fluorography. As for the experimental part:
The cDNA sequences encoding Bcl-X-L, Bcl-X-S, Bcl-2 and Bcl-2β were subcloned into plasmid pSK-II (Stratagens), which contains a T7 RNA polymerass binding site. Cloning into pSK-II allows for the in vitro production of RNA, which can be translated in vitro in the presence of ^35S-methionine using reticulocyte lysates to obtain ^35S-labeled proteins. The ^35S-labeled Bcl-2-related proteins (20 µl of in vitro translation mix) were added to approximately 1 µg of GST-BAP-1 fusion protein immobilized on 10 µl of glutathione-Sepharose or with approximately 1 µg of immobilized GST control protein as described above. Following incubation at 4° C. for 1 hr, the Sepharose particles were washed 3× in a solution containing 147 mM KCl, 20 mM Hepes (pH 7.1), 1 mM MgCl_2, 0.5 mM EGTA, 1 mM PMSF, 0.05 NP-40, 1 mM DTT, 1% non-fat dried milk and 1% BSA. The Sepharose particles were collected by centrifugation and boiled in Laemmli sample buffer to release any bound ^35S-labeled Bcl-2-related proteins. The released proteins were size-fractionated by SDS-PAGE using a 10% gel and visualized by fluorography using X-ray film.

Values joined by “and” are separate entries in the source; they are usually repeats but may differ in a detail not shown here. Equal values may be shown once.

As for “full length endogenous Raf-1 kinase (from UniProt Q99N57) (enzyme)”, the Raf-1 kinase activity in Bcl-2 immune complexes relative to control immune complexes (× (fold over control immune complexes)) in experiment [1] was 20 and 50.

B1: 35S-labeled Bcl-2β (in vitro translated) (other)
chain: MAHAGRTGYDNREIVMKYIHYKLSQRGYEWDAGDVGAAPPGAAPAPGIFSSQPGHTPHPAASRDPVARTSPLQTPAAPGAAAGPALSPVPPVVHLTLRQAGDDFSRRYRRDFAEMSSQLHLTPFTARGRFATVVEELFRDGVNWGRIVAFFEFGGVMCVESVNREMSPLVDNIALWMTEYLNRHLHTWIQDNGGWVGALGDVSLG
modifications: 35S-methionine label
For the molecule B1, in experiment [2], the binding result was “no binding”.

B2: 35S-labeled Bcl-X-S (in vitro translated) (other)
chain: MSQSNRELVVDFLSYKLSQKGYSWSQFSDVEENRTEAPEGTESEMETPSAINGNPSWHLADSPAVNGATGHSSSLDAREVIPMAAVKQALREAGDEFELRYRRAFSDLTSQLHITPGTAYQSFEQDTFVELYGNNAAAESRKGQERFNRWFLTGMTVAGVVLLGSLFSRK
modifications: 35S-methionine label
Turning to B2, in experiment [2], the binding result is reported as “no binding”.
